These are literature values, as cited in patent US9826773B2, “Brazzen multiple variants of increased sweetness, and production method for same” (CHUNG-ANG UNIVERSITY INDUSTRY—ACADEMIC COOPERATION …, priority 2012, dated 2017).

For the data set the following is noted: cited from earlier work; for thermal stability: background statement.

As for “Brazzein: sweetener protein extracted from the fruit of Pentadiplandra brazzeana (Baillon) (QDKCKKVYENYPVSKCQLANQCNYDCKLDKHARSGECFYDEKRNLQCICDYCEY; UniProt P56552 1-54, looked up)”, the thermal stability result is “very high thermal stability”. In addition, the “solubility and pH stability in water” value (Gao et al. 1999) was “very high solubility and pH stability”. Consider Monellin, for which the thermal stability entry is “low thermal stability”.
